According to the Human Domainome abundance scans (Beltran et al. 2025):
± gives the uncertainty stated by the source.

B1: FERM and PDZ domain-containing protein 4, residues 75 to 154; numbered along this chain, Q14CM0 (parent)
chain: APRKVEMRRDPVLGFGFVAGSEKPVVVRSVTPGGPSEGKLIPGDQIVMINDEPVSAAPRERVIDLVRSCKESILLTVIQP

Variants of: B1
Assay: abundance fitness (aPCA) (normalised: wild type 0, dead -1); higher = more abundant; growth selection in yeast, the domain comes from the species named
Conditions: Homo sapiens

Row | Variant | abundance fitness
1 | V62M | -0.383 ± 0.031
2 | V62N | -0.738 ± 0.04
3 | V62P | -0.841 ± 0.043
4 | V62Q | -0.745 ± 0.042
5 | V62R | -0.917 ± 0.037
6 | V62S | -0.666 ± 0.027
7 | V62T | -0.25 ± 0.025
8 | V62W | -0.4 ± 0.034
9 | V62Y | -0.248 ± 0.03
10 | I63A | 0.005 ± 0.04
11 | I63C | -0.093 ± 0.044
12 | I63D | -0.035 ± 0.044
13 | I63E | -0.031 ± 0.041
14 | I63F | 0.016 ± 0.04
15 | I63H | -0.003 ± 0.039
16 | I63K | -0.032 ± 0.037
17 | I63L | 0.009 ± 0.03
18 | I63M | -0.027 ± 0.035
19 | I63N | 0.034 ± 0.039
20 | I63P | -0.846 ± 0.088
21 | I63Q | -0.001 ± 0.042
22 | I63R | -0.033 ± 0.03
23 | I63S | 0.021 ± 0.03
24 | I63T | -0.061 ± 0.033

Row | Variant | abundance fitness
25 | I63V | -0.002 ± 0.032
26 | I63W | -0.041 ± 0.043
27 | I63Y | -0.087 ± 0.043
28 | D64A | -0.081 ± 0.025
29 | D64C | -0.295 ± 0.031
30 | D64E | -0.011 ± 0.031
31 | D64F | -0.354 ± 0.031
32 | D64G | -0.038 ± 0.028
33 | D64H | -0.045 ± 0.028
34 | D64I | -0.788 ± 0.051
35 | D64K | -0.06 ± 0.029
36 | D64L | -0.466 ± 0.025
37 | D64M | -0.247 ± 0.031
38 | D64N | -0.055 ± 0.03
39 | D64P | -0.51 ± 0.034
40 | D64Q | -0.013 ± 0.029
41 | D64R | -0.049 ± 0.025
42 | D64S | -0.023 ± 0.023
43 | D64T | -0.109 ± 0.026
44 | D64V | -0.593 ± 0.032
45 | D64W | -0.222 ± 0.033
46 | D64Y | -0.252 ± 0.031
47 | L65A | -0.056 ± 0.024
48 | L65C | -0.158 ± 0.034

Row | Variant | abundance fitness
49 | L65D | -0.462 ± 0.04
50 | L65E | -0.249 ± 0.028
51 | L65F | -0.109 ± 0.041
52 | L65G | -0.377 ± 0.022
53 | L65H | -0.205 ± 0.047
54 | L65I | -0.052 ± 0.041
55 | L65K | -0.022 ± 0.029
56 | L65M | -0.002 ± 0.031
57 | L65N | -0.349 ± 0.043
58 | L65P | -0.841 ± 0.055
59 | L65Q | -0.094 ± 0.03
60 | L65R | -0.093 ± 0.02
61 | L65S | -0.178 ± 0.024
62 | L65T | -0.114 ± 0.028
63 | L65V | -0.105 ± 0.023
64 | L65W | -0.244 ± 0.025
65 | L65Y | -0.076 ± 0.039
66 | V66A | -0.219 ± 0.024
67 | V66C | -0.08 ± 0.028
68 | V66D | -0.681 ± 0.048
69 | V66E | -0.427 ± 0.029
70 | V66F | -0.056 ± 0.033
71 | V66G | -0.73 ± 0.027
72 | V66H | -0.686 ± 0.056

Row | Variant | abundance fitness
73 | V66I | -0.009 ± 0.035
74 | V66K | -0.692 ± 0.043
75 | V66L | 0.022 ± 0.022
76 | V66M | -0.004 ± 0.029
77 | V66N | -0.733 ± 0.066
78 | V66P | -0.881 ± 0.048
79 | V66Q | -0.451 ± 0.035
80 | V66R | -0.818 ± 0.028
81 | V66S | -0.569 ± 0.028
82 | V66T | -0.18 ± 0.026
83 | V66W | -0.475 ± 0.029
84 | V66Y | -0.382 ± 0.041
85 | R67A | -0.01 ± 0.022
86 | R67C | -0.055 ± 0.029
87 | R67D | -0.018 ± 0.032
88 | R67E | 0.005 ± 0.024
89 | R67F | -0.095 ± 0.036
90 | R67G | -0.038 ± 0.019
91 | R67I | -0.159 ± 0.04
92 | R67K | 0.002 ± 0.027
93 | R67L | -0.105 ± 0.022
94 | R67M | -0.064 ± 0.025
95 | R67N | 0.017 ± 0.033
96 | R67P | -0.808 ± 0.044

Row | Variant | abundance fitness
97 | R67Q | 0.001 ± 0.028
98 | R67S | -0.013 ± 0.023
99 | R67T | -0.018 ± 0.026
100 | R67V | -0.079 ± 0.021
101 | R67W | -0.182 ± 0.024
102 | R67Y | -0.06 ± 0.036
103 | S68A | -0.033 ± 0.023
104 | S68C | -0.082 ± 0.032
105 | S68D | -0.042 ± 0.032
106 | S68E | -0.007 ± 0.025
107 | S68F | -0.099 ± 0.037
108 | S68I | -0.214 ± 0.041
109 | S68K | -0.043 ± 0.03
110 | S68L | -0.092 ± 0.022
111 | S68M | -0.071 ± 0.028
112 | S68P | -0.578 ± 0.033
113 | S68Q | -0.001 ± 0.026
114 | S68R | -0.048 ± 0.02
115 | S68T | -0.043 ± 0.026
116 | S68V | -0.17 ± 0.022
117 | S68W | -0.21 ± 0.025
118 | S68Y | -0.089 ± 0.037
119 | C69A | 0.004 ± 0.023
120 | C69D | -0.323 ± 0.034

Row | Variant | abundance fitness
121 | C69E | -0.059 ± 0.029
122 | C69F | -0.159 ± 0.029
123 | C69G | -0.209 ± 0.025
124 | C69H | -0.064 ± 0.028
125 | C69I | -0.19 ± 0.03
126 | C69K | -0.089 ± 0.026
127 | C69L | -0.236 ± 0.022
128 | C69M | -0.1 ± 0.028
129 | C69N | -0.056 ± 0.027
130 | C69P | -0.378 ± 0.028
131 | C69Q | -0.034 ± 0.027
132 | C69R | -0.119 ± 0.022
133 | C69S | -0.025 ± 0.021
134 | C69T | -0.044 ± 0.023
135 | C69V | -0.091 ± 0.023
136 | C69W | -0.591 ± 0.034
137 | K70A | -0.1 ± 0.027
138 | K70C | -0.115 ± 0.033
139 | K70D | -0.055 ± 0.038
140 | K70E | -0.061 ± 0.033
141 | K70F | -0.256 ± 0.034
142 | K70G | -0.093 ± 0.026
143 | K70H | -0.096 ± 0.032
144 | K70I | -0.311 ± 0.033

Row | Variant | abundance fitness
145 | K70L | -0.306 ± 0.024
146 | K70M | -0.17 ± 0.029
147 | K70N | -0.076 ± 0.03
148 | K70P | -0.052 ± 0.027
149 | K70Q | -0.078 ± 0.031
150 | K70R | -0.081 ± 0.024
151 | K70S | -0.054 ± 0.024
152 | K70T | -0.098 ± 0.026
153 | K70V | -0.168 ± 0.026
154 | K70W | -0.323 ± 0.034
155 | K70Y | -0.153 ± 0.029
156 | E71A | -0.095 ± 0.029
157 | E71C | -0.149 ± 0.038
158 | E71D | 0 ± 0.036
159 | E71G | -0.041 ± 0.03
160 | E71H | -0.081 ± 0.035
161 | E71I | -0.261 ± 0.037
162 | E71K | 0 ± 0.034
